# Test results from patent publication US9642898B2, “Use of serine protease inhibitors in the treatment of neutropenia” (Med Discovery S.A., priority 2009, dated 2017).
# B1: MDPK67b: chimeric inhibitor protein specific for hK2, modified RSL of α1-antichymotrypsin; amino acid sequence SEQ ID NO 16 (protein)
# chain: MHPNSPLDEENLTQENQDRGTHVDLGLASANVDFAFSLYKQLVLKAPDKNVIFSPLSISTALAFLSLGAHNTTLTEILKGLKFNLTETSEAEIHQSFQHLLRTLNQSSDELQLSMGNAMFVKEQLSLLDRFTEDAKRLYGSEAFATDFQDSAAAKKLINDYVKNGTRGKITDLIKDLDSQTMMVLVNYIFFKAKWEMPFDPQDTHQSRFYLSKKKWVMVPMMSLHHLTIPYFRDEELSCTVVELKYTGNASALFILPDQDKMEEVEAMLLPETLKRWRDSLEFREIGELYLPKFSISRDYNLNDILLQLGIEEAFTSKADLSGITGARNLAVSQVVHKAVLDVFEEGTEASAATAVKIKLRTTLVETRTIVRFNRPFLMIIVPTDTQNIFFMSKVTNPKQA
# B2: G-CSF (protein, UniProt P09919 31-207, looked up)
# Granulocyte …: TPLGPASSLPQSFLLKCLEQVRKIQGDGAALQEKLVSECATYKLCHPEELVLLGHSLGIPWAPLSSCPSQALQLAGCLSQLHSGLFLYQGLLQALEGISPELGPTLDTLQLDVADFATTIWQQMEELGMAPALQPTQGAMPAFASAFQRRAGGVLVASHLQSFLEVSYRVLRHLAQP
# notes: present agent used for the treatment of neutropenia
# B3: MDCI: chimeric inhibitor: P3-P3′ of rACTWT RSL replaced by RSL of Protein C inhibitor; SEQ ID No 14 (protein)
# chain: MRGSHHHHHHSRHPNSPLDEENLTQENQDRGTHVDLGLASANVDFAFSLYKQLVLKAPDKNVIFSPLSISTALAFLSLGAHNTTLTEILKGLKFNLTETSEAEIHQSFQHLLRTLNQSSDELQLSMGNAMFVKEQLSLLDRFTEDAKRLYGSEAFATDFQDSAAAKKLINDYVKNGTRGKITDLIKDLDSQTMMVLVNYIFFKAKWEMPFDPQDTHQSRFYLSKKKWVMVPMMSLHHLTIPYFRDEELSCTVVELKYTGNASALFILPDQDKMEEVEAMLLPETLKRWRDSLEFREIGELYLPKFSISRDYNLNDILLQLGIEEAFTSKADLSGITGARNLAVSQVVHKAVLDVFEEGTEASAATAVKITFRSALVETRTIVRFNRPFLMIIVPTDTQNIFFMSKVTNPKQA
# Experiments:
# [1] = tested on: neutrophils; assay: Annexin-V staining / FACS analysis of neutrophil apoptosis in vitro; format: cell-based, human
# Method: (§1) To assess viability of neutrophils in-vitro, peripheral blood from healthy donors was erythrocyte-lyzed and neutrophils or peripheral blood mononuclear cells (PBMCs) were isolated. Cultures in RPMI10%FCS were performed in 96 well microtiter plates (5×10^5cells/well) unless otherwise stated. The percentage of apoptotic neutrophils or PBMCs was assessed based on binding of fluorescent Annexin V-protein binding or measuring of CD11b or CD16 surface expression by FACS (fluorescent activated cell sorter) analysis.
# (§2) Cells were incubated for 24 or 48 hours with MDPK67b at concentrations ranging from 6 μM to 60 μM, as indicated, or PBS as control. Apoptosis was assessed by Annexin V staining and FACS analysis. Indicated leukocyte populations were gated based on their appearance in a forward scatter/sideward scatter FACS dot plot (neutrophils) or by positive staining for CD3 (T cells).
# Neutrophils were incubated for 18 hours with MDPK67b or MDOKG9 concentrations ranging from 60 μM (dilution 1) to […] as indicated. Apoptosis was assessed as outlined above.
# Neutrophils were cultured with the indicated concentrations of MDPK67b. PBS without MDPK67b served as a control. Neutrophils were plated (100 μl/well) either at 5×10^6/ml (high density) or 3×10^5/ml (low density) and neutrophil apoptosis was assessed by AnnexinV staining and FACS analysis. Culturing of 5×10^6/ml neutrophils in serum free medium (X-Vivo 15) instead of RPMI10% FCS was assessed in parallel.
# (§3) Neutrophils were cultured with the indicated concentrations of MDPK67b in presence or absence of the Src tyrosine kinase inhibitor PP2 (final concentration 10 μM). Apoptosis and relative frequencies of CD11b and CD16 high expressing neutrophils were measured by FACS analysis.
# Neutrophils were cultured with the indicated concentrations of G-CSF and neutrophil Apoptosis (FIG. 6A) and down-regulation of CD 16 expression (FIG. 6B) were analyzed by FACS. FIG. 6C: Neutrophils were cultured with MDPK67b (0.6 μM) and titrated amounts of G-CSF (concentrations as indicated). Neutrophils cultured in medium and PBS (without MDPK67b) served as a control.
# Cells were incubated during 18 hours with MDPK67b (6 μM) plus Etoposid (125 μg/ml), Etoposid alone or PBS. Apoptosis was assessed by Annexin V staining and FACS analysis. Relevant leukocyte populations were gated based on their appearance in a forward scatter or sideward scatter FACS dot plot.
# Cells were incubated for 18 hours with MDPK67b (0.06 μM) alone or MDPK67b (0.06 μM) plus increasing concentrations of Etopsid (in μg/ml) as indicated or PBS. Apoptosis was assessed by Annexin V staining and FACS analysis was performed as mentioned above.
# [2] = tested on: neutrophils; assay: CD16 / CD11b surface expression of cultured neutrophils by FACS; format: cell-based, human
# Method: as §1
# Neutrophils were cultured with the indicated concentrations of MDPK67b and percentage of neutrophils expressing high levels of CD16 or CD11b was assessed by FACS. Representative FACS plots are shown.
# as §3
# [3] = tested on: T cells; assay: Annexin-V staining / FACS analysis of T cells (CD3 positive); format: cell-based, human; conditions: 24 or 48 hours
# Method: as §1, §2
# [4] = tested on: neutrophils; assay: Annexin-V staining / FACS analysis of neutrophil apoptosis in vitro; format: cell-based, human; conditions: doses ranging from 60 μM down to 0.6 μM; 18, 24 or 48 hours; PBS control
# [5] = tested on: monocytes or lymphocytes; assay: Annexin-V staining / FACS analysis of monocytes or lymphocytes (PBMCs); format: cell-based, human
# Method: as §1, §2
# [6] = target: hK2 (Homo sapiens, UniProt P20151); assay: Inhibition of kallikrein hK2 by chimeric serpin; format: biochemical
# hK2, sequence (P20151 25-261): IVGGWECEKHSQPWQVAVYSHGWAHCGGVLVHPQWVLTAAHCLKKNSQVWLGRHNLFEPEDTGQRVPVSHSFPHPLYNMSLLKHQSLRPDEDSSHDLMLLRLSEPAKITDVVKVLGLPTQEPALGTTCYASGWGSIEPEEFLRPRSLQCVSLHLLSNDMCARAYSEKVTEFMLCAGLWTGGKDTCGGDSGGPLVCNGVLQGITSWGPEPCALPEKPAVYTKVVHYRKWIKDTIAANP
# Excerpt: These chimeric inhibitor proteins have been obtained by modifying the RSL of α1-antichymotrypsin (rACT), which is known to inhibit a large panel of human enzymes such as chymotrypsin, mast cell chymase , cathepsin G , prostatic kallikreins hK2 and PSA (hK3), in order to change the specificity of this serpin. Peptide sequences, selected as substrates for the enzyme hK2 by phage display technology as explained in International Patent Application PCT/IB2004/001040, have been used to replace the scissile bond and neighbor amino acid residues of the RSL. Recombinant inhibitors were produced in bacteria and purified by affinity chromatography.
# [7] = target: hK3 (Homo sapiens, UniProt P07288); assay: Inhibition of kallikrein hK3 by chimeric serpin; format: biochemical
# hK3, sequence (P07288 25-261): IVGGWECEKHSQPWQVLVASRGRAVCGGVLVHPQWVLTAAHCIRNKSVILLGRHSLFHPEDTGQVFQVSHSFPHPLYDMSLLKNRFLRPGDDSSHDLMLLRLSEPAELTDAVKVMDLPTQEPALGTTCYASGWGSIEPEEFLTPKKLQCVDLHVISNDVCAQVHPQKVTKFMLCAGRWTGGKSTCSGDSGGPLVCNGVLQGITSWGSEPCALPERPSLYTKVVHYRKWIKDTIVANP
# [8] = neutrophils cultured with MDPK67b plus kinase inhibitor (PP2 final concentration 10 μM)
molecule,measurement,setting,value
"COc1cc([C@@H]2c3cc4c(cc3[C@@H](O[C@@H]3O[C@@H]5CO[C@@H](C)O[C@H]5[C@H](O)[C@H]3O)[C@H]3COC(=O)[C@H]23)OCO4)cc(OC)c1O [Etoposid, reference compound]",block of the apoptosis reducing effect of MDPK67b,"[1]; Etoposid up to 125 μg/ml, 18 hours",only partially block
"CC(C)(C)n1nc(-c2ccc(Cl)cc2)c2c(N)ncnc21 [PP2, reference compound]",reversal of the decreased apoptosis in the presence of MDPK67b by kinase inhibitor,[1]; [8],can be reversed
same,reversal of the increased frequency of CD11b high expressing neutrophils in the presence of MDPK67b by kinase inhibitor,[2]; [8],can be reversed
B1,protection of neutrophils from apoptosis compared to G-CSF,[1],Superior Effect
same,apoptosis of neutrophils under various culture conditions,"[1]; 5×10^6/ml (high density) or 3×10^5/ml (low density), RPMI10% FCS or serum free medium (X-Vivo 15)",inhibits apoptosis of neutrophils in vitro independently of cell density and presence or absence of serum
same,cytostatic drug-induced apoptosis of neutrophils,"[1]; 18 hours, MDPK67b (6 μM or 0.06 μM) plus Etoposid",Reduces Cytostatic Drug-induced Apoptosis of Neutrophils
same,effect of MDPK67b on neutrophil apoptosis in presence of G-CSF,[1]; MDPK67b (0.6 μM) and titrated amounts of G-CSF,not affected by G-CSF
same,T-cell survival (Annexin V staining),[3],No Significant Effect on T-cell Survival
same,frequency of neutrophils that express CD16 and CD11b at high levels,[2]; indicated concentrations of MDPK67b,increases dose-dependently
same,apoptosis of neutrophils (Annexin V staining),[4],inhibit apoptosis of neutrophils
same,apoptosis of monocytes or lymphocytes,[5],did not inhibit apoptosis of monocytes or lymphocytes
B2,"effect on neutrophil apoptosis, alone","[1]; G-CSF alone, indicated concentrations",only a mild protecting effect
B3,inhibition of kallikrein hK2,[6],able to inhibit
same,inhibition of kallikrein hK3,[7],able to inhibit
